Assay [1] has as its target human thrombin (FIIa) (human) (UniProt P00734).
The target is the same in assay [2]. This is another data set of the same source.
Assay [3] has the same target. The source holds these as a separate data set.
The target of assay [4] is human plasma Kallikrein (human) (UniProt P03952).
Assay [5] addresses human thrombin (FIIa) (human) (UniProt P00734). This is another data set of the same source.
The target of assay [6] is human factor XIIa (human) (UniProt P00748).
In a further assay the target is human factor XIa (human) (UniProt P03951).
Chain of UniProt P03951 (P03951 19-387, chain 1 of 2): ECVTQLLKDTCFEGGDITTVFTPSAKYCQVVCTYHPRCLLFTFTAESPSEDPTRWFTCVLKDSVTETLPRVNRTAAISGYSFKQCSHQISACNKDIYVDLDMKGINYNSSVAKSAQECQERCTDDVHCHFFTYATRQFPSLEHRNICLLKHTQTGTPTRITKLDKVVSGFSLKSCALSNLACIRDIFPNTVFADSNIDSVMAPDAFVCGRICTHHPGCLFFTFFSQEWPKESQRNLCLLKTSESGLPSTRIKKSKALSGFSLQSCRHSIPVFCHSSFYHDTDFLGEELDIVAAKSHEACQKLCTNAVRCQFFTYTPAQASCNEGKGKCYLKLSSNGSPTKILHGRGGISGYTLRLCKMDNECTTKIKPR
Chain of UniProt P03951 (P03951 388-625, chain 2 of 2): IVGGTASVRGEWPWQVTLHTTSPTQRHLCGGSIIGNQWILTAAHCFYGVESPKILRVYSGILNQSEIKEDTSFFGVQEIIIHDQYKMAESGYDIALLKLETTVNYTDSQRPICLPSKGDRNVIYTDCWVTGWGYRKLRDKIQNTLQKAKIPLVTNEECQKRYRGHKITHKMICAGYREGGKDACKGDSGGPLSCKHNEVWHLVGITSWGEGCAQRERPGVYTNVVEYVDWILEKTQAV

Chain of UniProt P00748 (P00748 20-372, chain 1 of 2): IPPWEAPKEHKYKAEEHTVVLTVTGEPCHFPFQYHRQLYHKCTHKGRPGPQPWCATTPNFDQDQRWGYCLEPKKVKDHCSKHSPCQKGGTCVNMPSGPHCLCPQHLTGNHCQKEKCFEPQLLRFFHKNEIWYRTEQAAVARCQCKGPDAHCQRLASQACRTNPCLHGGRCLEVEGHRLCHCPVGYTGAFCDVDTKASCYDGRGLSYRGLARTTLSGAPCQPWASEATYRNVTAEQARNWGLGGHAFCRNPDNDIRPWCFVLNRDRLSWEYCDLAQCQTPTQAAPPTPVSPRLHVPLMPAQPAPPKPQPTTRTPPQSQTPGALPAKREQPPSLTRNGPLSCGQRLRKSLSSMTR
Chain of UniProt P00748 (P00748 373-615, chain 2 of 2): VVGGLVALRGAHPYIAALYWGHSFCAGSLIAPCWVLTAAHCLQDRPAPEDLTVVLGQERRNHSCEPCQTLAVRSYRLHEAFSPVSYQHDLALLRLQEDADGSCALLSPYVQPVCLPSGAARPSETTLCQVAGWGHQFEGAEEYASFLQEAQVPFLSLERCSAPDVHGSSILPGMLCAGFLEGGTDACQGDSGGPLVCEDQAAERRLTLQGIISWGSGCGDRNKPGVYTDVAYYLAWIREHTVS
Chain of UniProt P03952 (P03952 20-390, chain 1 of 2): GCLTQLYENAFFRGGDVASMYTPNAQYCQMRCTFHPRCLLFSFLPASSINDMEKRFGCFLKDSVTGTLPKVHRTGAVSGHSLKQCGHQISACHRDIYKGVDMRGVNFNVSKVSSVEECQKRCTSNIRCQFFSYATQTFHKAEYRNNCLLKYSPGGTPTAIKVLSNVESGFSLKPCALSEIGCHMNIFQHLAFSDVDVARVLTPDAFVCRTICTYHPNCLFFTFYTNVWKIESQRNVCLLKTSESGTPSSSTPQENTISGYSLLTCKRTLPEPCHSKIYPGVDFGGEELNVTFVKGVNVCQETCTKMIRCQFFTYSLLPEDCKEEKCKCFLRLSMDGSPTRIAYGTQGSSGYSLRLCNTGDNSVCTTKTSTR
Chain of UniProt P03952 (P03952 391-638, chain 2 of 2): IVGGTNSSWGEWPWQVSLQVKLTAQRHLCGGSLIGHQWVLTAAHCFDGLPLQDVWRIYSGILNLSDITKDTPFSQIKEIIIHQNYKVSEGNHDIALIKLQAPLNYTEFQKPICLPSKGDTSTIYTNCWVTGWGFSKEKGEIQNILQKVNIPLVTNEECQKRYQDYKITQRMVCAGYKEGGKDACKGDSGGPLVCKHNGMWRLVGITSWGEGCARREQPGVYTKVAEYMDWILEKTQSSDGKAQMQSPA

In assay [1], “recombinant Dromaserpin (rDromaserpin) (natural protein)” displayed a residual activity of thrombin (2U) with 0.2 µM rDromaserpin and heparin from 0 to 7.2 µM (48.11% without heparin, 12.5% at 2.4 µM heparin, less acceleration from 5.6 µM) of 48.1%. Also, in assay [2], the residual activity of thrombin (2U) on the chromogenic substrate S-2238 with rDromaserpin from 0.02 to 1 µM; IC50 was 160 nM. The reduction of thrombin-induced aggregation of washed human platelets; 10 µM rDromaserpin pre-incubated 10 min at 37 °C with thrombin in assay [3] was 88.2%. For the same substance, the decrease of Kallikrein (10 nM) catalytic activity on S-2302 with 1 µM and 5 µM rDromaserpin (~30% and ~76%) in assay [4] was 76%. The same substance registered a decrease of thrombin (2U) catalytic activity on S-2238 with 1 µM and 5 µM rDromaserpin (87% and 89%), 15 min pre-incubation at 37 °C in assay [5] of 89%. This substance gave an inhibition of FXIIa (15 nM) activity on S-2302 with 1 µM and 5 µM rDromaserpin (no effect at 1 µM, ~29% at 5 µM) in assay [6] of 29%. The substance further registered an inhibition of FXIa (3.7 nM) activity (BIOPHEN kit) with 1 µM and 5 µM rDromaserpin (no effect at 1 µM, ~48% at 5 µM) with human factor XIa (human) of 48%.

Source of the values: PMC8703697.
